Measured values from US7217525 (Johns Hopkins, dated 2007).

Molecular target: T1, Narp (recombinant, expressed in transfected HEK-293 cells) (Rattus norvegicus (Rat), UniProt P97738 15-432)
T1 sequence: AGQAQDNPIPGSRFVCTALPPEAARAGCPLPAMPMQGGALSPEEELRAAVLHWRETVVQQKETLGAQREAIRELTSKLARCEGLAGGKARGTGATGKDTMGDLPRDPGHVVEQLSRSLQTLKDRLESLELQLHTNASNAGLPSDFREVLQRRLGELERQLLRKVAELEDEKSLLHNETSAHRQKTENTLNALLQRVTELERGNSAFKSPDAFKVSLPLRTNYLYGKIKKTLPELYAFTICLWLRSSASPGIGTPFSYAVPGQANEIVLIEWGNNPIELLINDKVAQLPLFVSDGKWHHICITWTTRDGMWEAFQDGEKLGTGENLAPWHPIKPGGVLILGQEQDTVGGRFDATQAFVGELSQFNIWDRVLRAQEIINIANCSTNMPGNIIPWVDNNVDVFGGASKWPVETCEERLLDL
Experiment: cell-based or functional assay

increase in intercellular myc-Narp*GluR1 co-clusters when untagged Narp is co-expressed with GluR1 in the apposing 293 cell: 2 fold
B1: C-terminal myc-tagged version of Narp (designated myc-Narp) (ligand, not shown: small tags and cut ends)
chain: AGQAQDNPIPGSRFVCTALPPEAARAGCPLPAMPMQGGALSPEEELRAAVLHWRETVVQQKETLGAQREAIRELTSKLARCEGLAGGKARGTGATGKDTMGDLPRDPGHVVEQLSRSLQTLKDRLESLELQLHTNASNAGLPSDFREVLQRRLGELERQLLRKVAELEDEKSLLHNETSAHRQKTENTLNALLQRVTELERGNSAFKSPDAFKVSLPLRTNYLYGKIKKTLPELYAFTICLWLRSSASPGIGTPFSYAVPGQANEIVLIEWGNNPIELLINDKVAQLPLFVSDGKWHHICITWTTRDGMWEAFQDGEKLGTGENLAPWHPIKPGGVLILGQEQDTVGGRFDATQAFVGELSQFNIWDRVLRAQEIINIANCSTNMPGNIIPWVDNNVDVFGGASKWPVETCEERLLDL
